Reference: the supplement of paper PMC12764529

Experiment: folding stability dG unfold (combined trypsin and chymotrypsin); higher = more stable
Description: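 Folding stability of de novo designed mini-proteins (<80 aa, no Cys; designed by TrROS, TrMRF, ProteinMPNN and the joint model) was measured by cDNA display proteolysis with trypsin and chymotrypsin. Each protease was used at 11 concentrations in a threefold dilution series plus a no-protease condition. K50 was inferred by Bayesian fitting of sequencing counts, and dG unfold was derived against a sequence-predicted unfolded-state K50 (Tsuboyama et al. method). Sequences shown include variable-length N-terminal GS-type padding (SAGGSAGG...) inside a display construct carrying a PA tag. Rows were kept only if the AF2 dimer inter-PAE was >15, to exclude likely homo-oligomers.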

Sequence | folding stability dG unfold
SAGGSAGGSAGGELVLPELNKPLNVEKEEVVVEGGEEVVKIKATGSGKPFEYVVPKGLGSAGGSAGGSAGGS [r10_517_JUSTAS] | < -1 kcal/mol
SAGGSAGGSAGGGKVKSIELNPETDLALVEIEPEDGGTATVVLPLDLLENIPLDGTLTISAGGSAGGSAGGS [r10_255_TrMRF] | < -1 kcal/mol
SAGGSAGGSAGGGPDWVLRRRTLEESSPVSTTPNPTGRRRTGYRTLVREEEVVLPPDLESAGGSAGGSAGGS [r10_524_JUSTAS] | < -1 kcal/mol
SAGGSAGGSAGGGSVHMPPLINWQEEEFEYESEEPVHIKRLVYKHPYSNEVEEEIEILLSAGGSAGGSAGGS [r10_881_JUSTAS] | < -1 kcal/mol
SAGGSAGGSAGGGSVTESPSYVVTRSADPAGPALYTVTDLSTGVPSSSTVAPDAPAVVPPSAGGSAGGSAGG [r7_177_JUSTAS] | < -1 kcal/mol
SAGGSAGGSAGGIKPGDKVRIMQMDKNGEMRGPVEIDNVEDGKITIKLPPPYRIMIQPYSAGGSAGGSAGGS [r10_1257_TrROS] | < -1 kcal/mol
SAGGSAGGSAGGIYIPMDDLKKNGMSIEQFADKLGHPVEIEVERNEPGSPVFKIEPDAKSAGGSAGGSAGGS [r10_855_TrROS] | < -1 kcal/mol
SAGGSAGGSAGGKRRKITIPFKMPDGRWHPIRANMSEEQLEDIVEHHPFFKPAIKKALKKSAGGSAGGSAGG [r7_637_TrROS] | < -1 kcal/mol
SAGGSAGGSAGGLKIPKGYPWKLSHNNGKEREFKFDSLDDIKEELNVPIPPGRNIQIEPYSAGGSAGGSAGG [r7_223_TrROS] | < -1 kcal/mol
SAGGSAGGSAGGMEDVKLLSKSYIPETNELEVTVEIPGGELVNIPLKPGVTDEDVLKLISAGGSAGGSAGGS [r10_984_JUSTAS] | < -1 kcal/mol
SAGGSAGGSAGGMELEVHYTPNGYHTAEIRDPNGKPVEIYFDSPEDAPKEAQKLAKELQSAGGSAGGSAGGS [r10_1066_TrROS] | < -1 kcal/mol
SAGGSAGGSAGGMITVKDPATGKWREVTPEELEEVLAANPGPITVEREGGRRTVPAALLSAGGSAGGSAGGS [r10_839_JUSTAS] | < -1 kcal/mol
SAGGSAGGSAGGMKVTVETFEGPDFEIVTERSPEGKVKVFTIKPNEVKEEVIPLENPELSAGGSAGGSAGGS [r10_1169_JUSTAS] | < -1 kcal/mol
SAGGSAGGSAGGMPELEKEGYKVEKFTIFEPDPLKPVGEVTVLTEVPKPKLLEGGSTSGLSAGGSAGGSAGG [r7_959_JUSTAS] | < -1 kcal/mol
SAGGSAGGSAGGMRDIAREFAEKNGDKNKPVRIKMPGGKKHNFTPDDIPDMPFDNWTIEPSAGGSAGGSAGG [r7_863_TrROS] | < -1 kcal/mol
SAGGSAGGSAGGMTKTYVTPVSPDVSEEEIKEKLAPEVSSVEVERDEESGTVTITTTLDSAGGSAGGSAGGS [r10_1007_JUSTAS] | < -1 kcal/mol
SAGGSAGGSAGGMVTIETPDEKYEITPTPEDRVLTKVYKKGKEIIKTKDPNSDKTEILDESAGGSAGGSAGG [r7_683_JUSTAS] | < -1 kcal/mol
SAGGSAGGSAGGMVTNEVIEVDPANPEEVIAEIKAKGKAEAKKIEKLEGDKMKVYVKTSLSAGGSAGGSAGG [r7_589_JUSTAS] | < -1 kcal/mol
SAGGSAGGSAGGNIEIEVERNPENGYYTVEIKFNNPPIEIMVPRGMPKEQAKDWAKDLISAGGSAGGSAGGS [r10_192_TrROS] | < -1 kcal/mol
SAGGSAGGSAGGNTRYIPMPPDDIEELIEEAKDEGIDNVIIHNPENGRWIKITGDKIKPVSAGGSAGGSAGG [r7_564_TrROS] | < -1 kcal/mol
SAGGSAGGSAGGPDIKEAKPGLYPDKPVIYFKLPDREVVLFPGPKERFVKFGDKVLKIPSAGGSAGGSAGGS [r10_559_TrMRF] | < -1 kcal/mol
SAGGSAGGSAGGPDVEKYPFKFPGKKFKIQRNPDDPDSYMISFPPGKTETFPLDDIKPLSAGGSAGGSAGGS [r10_556_TrROS] | < -1 kcal/mol

Sequence | folding stability dG unfold
SAGGSAGGSAGGPEGQWIDMDVEHNPKNNKLTIKFPDSGKPITIPANNIERVGDYIRINSAGGSAGGSAGGS [r10_942_TrROS] | < -1 kcal/mol
SAGGSAGGSAGGPKIQIPVDSPEDAVDEARDWMEQQFGIDPEDMPINVHVNEDDGWLYIRSAGGSAGGSAGG [r7_387_TrROS] | < -1 kcal/mol
SAGGSAGGSAGGPYLRIKWKHPENGKTREIEIPFEGKPLEEIADNIKKEHGMTVTDIEPVSAGGSAGGSAGG [r7_590_TrROS] | < -1 kcal/mol
SAGGSAGGSAGGSGSFDPENGTIEIRVPKTKKPVKIPFPEEEADEFAENLPPNLDRVHFSAGGSAGGSAGGS [r4_282_TrROS] | < -1 kcal/mol
SAGGSAGGSAGGSGVRLRFPADYPELVEKLAKAFGLKPKSFNPDTGEVDIGNEPGAKIVSAGGSAGGSAGGS [r4_3_TrMRF] | < -1 kcal/mol
SAGGSAGGSAGGSKLPPGAKVKIRFPNNNKEHEIKSPEQIKTFEIDGREMKIRKIEVEDSAGGSAGGSAGGS [r4_214_TrROS] | < -1 kcal/mol
SAGGSAGGSAGGSMKIIEVPGPPEEVIEKIKEENPNAKVLSVEEDPEGGVTFKIEIEEKSAGGSAGGSAGGS [r4_95_JUSTAS] | < -1 kcal/mol
SAGGSAGGSAGGSNIKELAKELWDKNPGPRPIRFKGNGYKIRFQMPPEGRLRPVEIEKNSAGGSAGGSAGGS [r4_438_TrROS] | < -1 kcal/mol
SAGGSAGGSAGGSPAFVAPSPDAYLSADPVTGEWEPVPADHVVLSVDPSNGRVTISDPLSAGGSAGGSAGGS [r4_127_TrMRF] | < -1 kcal/mol
SAGGSAGGSAGGSTKTIMLDSPEKVEELVEEAMEKGDPITIEYHDPGEGKPFEFKFPVKSAGGSAGGSAGGS [r4_188_TrROS] | < -1 kcal/mol
SAGGSAGGSAGGSTLEEIREMAKQGKKFKIRNPGNNQEHEIRPDDLDDFRGSPISIEPVSAGGSAGGSAGGS [r4_157_TrROS] | < -1 kcal/mol
SAGGSAGGSAGGSVIMVNSPEWAKEFAGAMMQEKSRKHGEPMTPDDVPVEIEVYDPEDWSAGGSAGGSAGGS [r4_498_TrROS] | < -1 kcal/mol
SAGGSAGGSAGGSVTVSLSELKKILKEKGNPGTVEEILEDPNVSVSKDPNSSNEIVTIPGSAGGSAGGSAGG [r7_180_JUSTAS] | < -1 kcal/mol
SAGGSAGGSAGGTAEEIRDIFEEHGMEVEVEVTPDNVTIQYEMPNGKKREFRIPADDLKSAGGSAGGSAGGS [r10_1029_TrROS] | < -1 kcal/mol
SAGGSAGGSAGGTDKVKEKLAPGRDITVLKIDPTDSVVNVTVKSPDSDVDTVVEVDPELISAGGSAGGSAGG [r7_303_JUSTAS] | < -1 kcal/mol
SAGGSAGGSAGGTIEELAEKLPNVDLKPVEPGPGMRRIKAQPPNGKKFTIMVDDGKIHIQSAGGSAGGSAGG [r7_26_TrROS] | < -1 kcal/mol
SAGGSAGGSAGGVVSPSSEPVEMTVEEVILETERVPESGESLRPLPVRRVLRTVTNFGLSAGGSAGGSAGGS [r10_122_JUSTAS] | < -1 kcal/mol
SAGGSAGGSAGIKIPSNYKYKIEKSKDDYYEIYTEDKNKKFIVPKNAPIVVFEDNTVYVKSAGGSAGGSAGG [r17_49_TrMRF] | < -1 kcal/mol
SAGGSAGGSAGIKVDQNPESNMFSVKIRNDGKEKTIEIDMPPGEPPDIDDLAKKLGIEVVSAGGSAGGSAGG [r11_1053_TrROS] | < -1 kcal/mol
SAGGSAGGSAGKKKPPPKVTLVIRVKMSPEEVKKLAELFPDAKVTVTYDEETGLLTVTFDSAGGSAGGSAGG [r17_254_TrROS_Hall] | > 6 kcal/mol
SAGGSAGGSAGKNVPFRWRIRDPKNGNEKTIDVPMDSPEDMNRAADELQKKFPGYKVEPYSAGGSAGGSAGG [r11_233_TrROS] | < -1 kcal/mol
SAGGSAGGSAGKYISVDELRKNGDPDEAERVVKKIMEKFPGPKIKPIEWDKDGNHMFKIKSAGGSAGGSAGG [r11_365_TrROS] | < -1 kcal/mol
